The values below come from patent US20260097076A1 (ELPIS BIOPHARMACEUTICALS, published 2026).

Assay [1] has as its target T1, Transmembrane activator and CAML interactor (TACI) on cells (UniProt O14836 1-293, limits assumed).
T1 construct: whole, on cells; also called tumor necrosis factor receptor superfamily member 13B (TNFRSF13B)
T1 sequence (looked up): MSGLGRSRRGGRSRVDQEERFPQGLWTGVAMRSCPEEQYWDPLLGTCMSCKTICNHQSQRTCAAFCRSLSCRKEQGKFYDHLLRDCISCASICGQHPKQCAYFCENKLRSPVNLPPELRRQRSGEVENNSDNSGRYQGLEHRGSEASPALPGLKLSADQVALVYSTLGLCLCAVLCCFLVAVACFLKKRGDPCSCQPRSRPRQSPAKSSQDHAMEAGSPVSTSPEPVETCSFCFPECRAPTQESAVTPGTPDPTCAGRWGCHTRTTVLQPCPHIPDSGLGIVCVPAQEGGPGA
The experiment in a line: flow cytometry on RPMI8226 cells (endogenous TACI). The procedure: (§1) Cells were spun down at 1200 rpm for 6 minutes at 4° C. to remove primary antibodies. Cells were then washed once with 200 μL of full medium per well. Samples were detected with premixed anti-His Biotin Streptavidin Alexa fluor 647 by adding 100 μL of diluted secondary antibody and incubated at 4° C. for 30 minutes in the dark. Samples were spun down at 1200 rpm for 5 minutes at 4° C. and washed twice with 200 μL of 1×PBS per well. Reconstituted samples in 200 μL of 1×PBS and read on Attune NxT cytometer. Analysis was done by Attune NxT software plotting the overlaying the histogram of anti-BCMA scFvs binding onto both negative and target cell lines. […] The BCMA cell binding affinity for exemplary anti-BCMA antibodies (in scFv format) was also generated with serial diluted scFvs as described above.
(§2) Anti-TACI scFv binders have been identified through Anti-TACI supernatant FACS screening assay with JVM2, MM1.R and RPMI8226 cell lines as described in above supernatant FACS screening assay. 200 nM of purified scFvs were subjected into FACS binding assay with TACI negative cell lines K562, H929 and TACI expressing cancer cell lines of JVM2, MM1.R, RPMI8226. The assay procedure and data analysis were described in Example 1 above.
On the technique in general: Flow cytometry measures light scatter and fluorescence of single cells or particles in a stream.

Assay [2] deals with T1, Transmembrane activator and CAML …. The experiment in a line: flow cytometry on MM1S cells (endogenous TACI).
For assay [3], the target named is T2, soluble recombinant TACI (UniProt O14836 1-165, limits assumed).
T2 construct: Immobilized on a 384 well plate; construct not described
T2 sequence (looked up): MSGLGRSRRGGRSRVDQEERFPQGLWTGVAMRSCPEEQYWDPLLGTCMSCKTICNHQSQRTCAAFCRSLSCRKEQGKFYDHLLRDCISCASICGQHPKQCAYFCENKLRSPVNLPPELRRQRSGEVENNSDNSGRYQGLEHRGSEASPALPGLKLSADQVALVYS
Description: ELISA, recombinant TACI immobilized on 384 well plate. As for the experimental part: Purified anti-TACI scFvs were subjected to ELISA binding assay. Recombinant TACI and negative protein were immobilized on the 384 well plate. 200 nM of anti-TACI scFv clones were serial diluted and tested for binding in the assay as described above.
A general note: An ELISA detects its analyte on a solid surface through an enzyme-linked reagent.

In assay [4] the target is T1, Transmembrane activator and CAML …. The experiment in a line: flow cytometry on MM1R cells (endogenous TACI). The procedure:
as §1, §2

The target is the same in assay [5]. Description: flow cytometry on JVM2 cells (endogenous TACI). As for the experimental part: as §1, §2

B1: TC-03 (anti-TACI antibody in scFv format) (scFv, not shown: small tags and cut ends)
scFv: EVQLVESGGGLVQPGGSLRLSCATSGFTVNSDYMSWVRQSPEKGLEWVSFIYRGGSTYYADSVKGRFTVSRDTSKNTLYLQMNSLRVEDTAVYYCARGLGSSSDYWGQGTLVTVSSGGGGSGGGGSGGGGSSYELTQPHSVSESPGKTVTISCTRSSGSIANNYVQWYRHRPGSAPSTVIFEDDHRPSEVPDRFSGSIDSSSNSASLTISGLKTEDEADYYCQSYDGIDHYVFGTGTKLTVL
notes: Human scFv from mRNA display (live cell selections), VH-(G4S)3-VL
Turning to B1, the EC50 in assay [1] was found to be 830 nM; in assay [2] it was 46.7 nM; in assay [4], 14 nM; in assay [5] it was 26.8 nM. Also, the binding result in assay [3] was “no binding (tested: 200 nM, serial diluted)”.

What is called EC50 is the concentration giving half of the maximal effect.
